System: Escherichia coli TOP10
Assay: shrunken log2 fold change of peptide-encoding DNA abundance (4.5 h post-induction vs induction); higher = less antimicrobial activity (less host growth inhibition)
Settings: time post-induction: 4.5 h; library: site-saturation at positions 5, 18, 19, 20
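Also: peptides expressed intracellularly from a pBAD plasmid library in pooled LB shake-flask culture, induced with 0.3% L-arabinose, DNA abundance read by NGS, three biological replicates, DESeq2 with apeglm shrinkage.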

Row | Sequence | shrunken log2 fold change
1 | RRIRCRPPRLPRPRPRPDDDPRP | 0.0464
2 | RRIRCRPPRLPRPRPRPDDPPRP | 0.0647
3 | RRIRCRPPRLPRPRPRPDELPRP | -0.044
4 | RRIRCRPPRLPRPRPRPDGDPRP | 0.0934
5 | RRIRCRPPRLPRPRPRPDIFPRP | -0.262
6 | RRIRCRPPRLPRPRPRPDIKPRP | -0.336
7 | RRIRCRPPRLPRPRPRPDKPPRP | 0.0422
8 | RRIRCRPPRLPRPRPRPDMRPRP | 0.018
9 | RRIRCRPPRLPRPRPRPDMWPRP | 0.104
10 | RRIRCRPPRLPRPRPRPDNHPRP | -0.719
11 | RRIRCRPPRLPRPRPRPDNLPRP | -0.595
12 | RRIRCRPPRLPRPRPRPDPCPRP | -0.039
13 | RRIRCRPPRLPRPRPRPDPVPRP | 0.205
14 | RRIRCRPPRLPRPRPRPDRNPRP | -0.397
15 | RRIRCRPPRLPRPRPRPDRTPRP | 0.0438
16 | RRIRCRPPRLPRPRPRPDSKPRP | -0.657
17 | RRIRCRPPRLPRPRPRPDTFPRP | 0.0257
18 | RRIRCRPPRLPRPRPRPDTKPRP | -0.158
19 | RRIRCRPPRLPRPRPRPDTRPRP | -0.0118
20 | RRIRCRPPRLPRPRPRPDVNPRP | -0.281
21 | RRIRCRPPRLPRPRPRPDWDPRP | -0.149
22 | RRIRCRPPRLPRPRPRPDYHPRP | -0.903
23 | RRIRCRPPRLPRPRPRPDYNPRP | -0.571
24 | RRIRCRPPRLPRPRPRPEARPRP | 0.193
25 | RRIRCRPPRLPRPRPRPEEDPRP | -0.00229

Row | Sequence | shrunken log2 fold change
26 | RRIRCRPPRLPRPRPRPEENPRP | 0.602
27 | RRIRCRPPRLPRPRPRPEETPRP | 0.143
28 | RRIRCRPPRLPRPRPRPEEYPRP | -0.065
29 | RRIRCRPPRLPRPRPRPEGGPRP | 0.477
30 | RRIRCRPPRLPRPRPRPEGQPRP | 0.788
31 | RRIRCRPPRLPRPRPRPEGTPRP | 0.137
32 | RRIRCRPPRLPRPRPRPEHYPRP | -0.625
33 | RRIRCRPPRLPRPRPRPEIKPRP | 0.0171
34 | RRIRCRPPRLPRPRPRPEIQPRP | 0.141
35 | RRIRCRPPRLPRPRPRPEKRPRP | -0.123
36 | RRIRCRPPRLPRPRPRPEKTPRP | -0.0706
37 | RRIRCRPPRLPRPRPRPELQPRP | 0.251
38 | RRIRCRPPRLPRPRPRPEMCPRP | 0.0156
39 | RRIRCRPPRLPRPRPRPEMPPRP | 0.65
40 | RRIRCRPPRLPRPRPRPENFPRP | -0.32
41 | RRIRCRPPRLPRPRPRPEPVPRP | 0.0937
42 | RRIRCRPPRLPRPRPRPEQIPRP | 0.259
43 | RRIRCRPPRLPRPRPRPEQWPRP | 0.594
44 | RRIRCRPPRLPRPRPRPERVPRP | 0.361
45 | RRIRCRPPRLPRPRPRPETHPRP | 0.0444
46 | RRIRCRPPRLPRPRPRPETNPRP | 0.222
47 | RRIRCRPPRLPRPRPRPETPPRP | 1.91
48 | RRIRCRPPRLPRPRPRPETQPRP | 0.0409
49 | RRIRCRPPRLPRPRPRPETRPRP | 0.209
50 | RRIRCRPPRLPRPRPRPETTPRP | 0.394

Row | Sequence | shrunken log2 fold change
51 | RRIRCRPPRLPRPRPRPEVGPRP | 0.555
52 | RRIRCRPPRLPRPRPRPEWLPRP | 0.479
53 | RRIRCRPPRLPRPRPRPFCIPRP | -0.571
54 | RRIRCRPPRLPRPRPRPFCPPRP | -0.225
55 | RRIRCRPPRLPRPRPRPFCYPRP | -0.733
56 | RRIRCRPPRLPRPRPRPFERPRP | -0.0613
57 | RRIRCRPPRLPRPRPRPFGFPRP | -0.388
58 | RRIRCRPPRLPRPRPRPFGMPRP | -0.033
59 | RRIRCRPPRLPRPRPRPFGSPRP | -0.078
60 | RRIRCRPPRLPRPRPRPFIKPRP | -0.715
61 | RRIRCRPPRLPRPRPRPFKNPRP | -0.967
62 | RRIRCRPPRLPRPRPRPFLEPRP | -0.472
63 | RRIRCRPPRLPRPRPRPFLPPRP | -0.265
64 | RRIRCRPPRLPRPRPRPFPGPRP | -0.0106
65 | RRIRCRPPRLPRPRPRPFPLPRP | -0.0156
66 | RRIRCRPPRLPRPRPRPFPSPRP | 0.118
67 | RRIRCRPPRLPRPRPRPFRGPRP | -0.151
68 | RRIRCRPPRLPRPRPRPFRQPRP | -0.0498
69 | RRIRCRPPRLPRPRPRPFVMPRP | -0.153
70 | RRIRCRPPRLPRPRPRPFWGPRP | 0.0697
71 | RRIRCRPPRLPRPRPRPFWLPRP | -0.227
72 | RRIRCRPPRLPRPRPRPFYFPRP | -0.593
73 | RRIRCRPPRLPRPRPRPFYIPRP | -0.58
74 | RRIRCRPPRLPRPRPRPGAGPRP | 0.364
75 | RRIRCRPPRLPRPRPRPGAHPRP | 0.0157

Row | Sequence | shrunken log2 fold change
76 | RRIRCRPPRLPRPRPRPGAIPRP | -0.0334
77 | RRIRCRPPRLPRPRPRPGATPRP | 0.512
78 | RRIRCRPPRLPRPRPRPGAWPRP | 0.462
79 | RRIRCRPPRLPRPRPRPGCAPRP | 0.593
80 | RRIRCRPPRLPRPRPRPGDWPRP | 0.377
81 | RRIRCRPPRLPRPRPRPGEQPRP | 0.262
82 | RRIRCRPPRLPRPRPRPGEYPRP | 0.0239
83 | RRIRCRPPRLPRPRPRPGGIPRP | -0.329
84 | RRIRCRPPRLPRPRPRPGKAPRP | 0.00811
85 | RRIRCRPPRLPRPRPRPGKHPRP | -0.423
86 | RRIRCRPPRLPRPRPRPGKMPRP | -0.055
87 | RRIRCRPPRLPRPRPRPGLFPRP | 0.154
88 | RRIRCRPPRLPRPRPRPGLLPRP | 0.0187
89 | RRIRCRPPRLPRPRPRPGLWPRP | 0.569
90 | RRIRCRPPRLPRPRPRPGMMPRP | -0.389
91 | RRIRCRPPRLPRPRPRPGPFPRP | -0.0444
92 | RRIRCRPPRLPRPRPRPGQNPRP | 0.261
93 | RRIRCRPPRLPRPRPRPGQWPRP | -0.125
94 | RRIRCRPPRLPRPRPRPGSGPRP | 0.496
95 | RRIRCRPPRLPRPRPRPGSSPRP | 0.0141
96 | RRIRCRPPRLPRPRPRPGTCPRP | -0.143
97 | RRIRCRPPRLPRPRPRPGTQPRP | 0.00157
98 | RRIRCRPPRLPRPRPRPGTWPRP | 0.011
99 | RRIRCRPPRLPRPRPRPGVPPRP | -0.3
100 | RRIRCRPPRLPRPRPRPGWAPRP | 0.606

Row | Sequence | shrunken log2 fold change
101 | RRIRCRPPRLPRPRPRPGWVPRP | 0.513
102 | RRIRCRPPRLPRPRPRPGYMPRP | -0.836
103 | RRIRCRPPRLPRPRPRPHAWPRP | -0.245
104 | RRIRCRPPRLPRPRPRPHCVPRP | -0.439
105 | RRIRCRPPRLPRPRPRPHDAPRP | -0.336
106 | RRIRCRPPRLPRPRPRPHEMPRP | -0.0763
107 | RRIRCRPPRLPRPRPRPHFIPRP | -0.528
108 | RRIRCRPPRLPRPRPRPHFKPRP | -0.368
109 | RRIRCRPPRLPRPRPRPHFPPRP | -0.0893
110 | RRIRCRPPRLPRPRPRPHGIPRP | -0.0487
111 | RRIRCRPPRLPRPRPRPHHDPRP | -0.58
112 | RRIRCRPPRLPRPRPRPHHRPRP | -0.266
113 | RRIRCRPPRLPRPRPRPHLEPRP | 0.0414
114 | RRIRCRPPRLPRPRPRPHLPPRP | -0.195
115 | RRIRCRPPRLPRPRPRPHLRPRP | 0.144
116 | RRIRCRPPRLPRPRPRPHMMPRP | -1.12
117 | RRIRCRPPRLPRPRPRPHMPPRP | -0.585
118 | RRIRCRPPRLPRPRPRPHMVPRP | -0.149
119 | RRIRCRPPRLPRPRPRPHNDPRP | -0.889
120 | RRIRCRPPRLPRPRPRPHNFPRP | -1.01
121 | RRIRCRPPRLPRPRPRPHNVPRP | -0.194
122 | RRIRCRPPRLPRPRPRPHPFPRP | -0.0728
123 | RRIRCRPPRLPRPRPRPHQRPRP | -0.422
124 | RRIRCRPPRLPRPRPRPHRRPRP | -0.167
125 | RRIRCRPPRLPRPRPRPHSCPRP | -0.132

Row | Sequence | shrunken log2 fold change
126 | RRIRCRPPRLPRPRPRPHSTPRP | -0.698
127 | RRIRCRPPRLPRPRPRPHWKPRP | -0.126
128 | RRIRCRPPRLPRPRPRPHWQPRP | -0.365
129 | RRIRCRPPRLPRPRPRPICEPRP | -0.178
130 | RRIRCRPPRLPRPRPRPICGPRP | 0.289
131 | RRIRCRPPRLPRPRPRPICYPRP | -0.358
132 | RRIRCRPPRLPRPRPRPIDLPRP | -0.271
133 | RRIRCRPPRLPRPRPRPIDMPRP | -0.175
134 | RRIRCRPPRLPRPRPRPIDSPRP | -0.197
135 | RRIRCRPPRLPRPRPRPIFEPRP | 0.0936
136 | RRIRCRPPRLPRPRPRPIFHPRP | -0.333
137 | RRIRCRPPRLPRPRPRPIGIPRP | -0.303
138 | RRIRCRPPRLPRPRPRPIHSPRP | -0.221
139 | RRIRCRPPRLPRPRPRPIINPRP | -0.325
140 | RRIRCRPPRLPRPRPRPIKLPRP | -0.63
141 | RRIRCRPPRLPRPRPRPILRPRP | 0.103
142 | RRIRCRPPRLPRPRPRPIMEPRP | -0.231
143 | RRIRCRPPRLPRPRPRPIQIPRP | -0.0558
144 | RRIRCRPPRLPRPRPRPISWPRP | -0.105
145 | RRIRCRPPRLPRPRPRPITMPRP | -0.309
146 | RRIRCRPPRLPRPRPRPIVRPRP | -0.793
147 | RRIRCRPPRLPRPRPRPIYAPRP | -0.281
148 | RRIRCRPPRLPRPRPRPKCIPRP | -0.102
149 | RRIRCRPPRLPRPRPRPKCSPRP | 0.0495
150 | RRIRCRPPRLPRPRPRPKDHPRP | 0.0424
